B1: SNX8 (parent)
chain: RMVPALPPKRMLGADREFIEARRR
B2: PHTF1 (parent)
chain: RVKLISNKGTETDNDPSCVHPIIK

Variants of: B1
Test: protein stability index of a GFP-peptide fusion (GPS, HEK-293T) (PSI 1-6); higher = more stable
Settings: c terminus: a fixed tail appended
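Also: lentivirally expressed fusions sorted by FACS into six bins by GFP to DsRed ratio, PSI derived from sequencing read proportions per bin multiplied by bin number.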

Protein stability index: each site, then its substitutions
A21: T 3.96 | V 3.76 | W 2.67 | Y 3.24
R22: A 4.33 | C 4 | D 4.53 | E 4.43 | F 3.58 | G 4.02 | H 3.76 | I 2.74 | K 4.09 | L 2.92 | M 3.16 | N 3.77 | P 3.79 | Q 4.05 | S 3.75 | T 3.75 | V 3.33 | W 2.73 | Y 3.43
R23: A 2.54 | C 2.95 | D 4.53 | E 4.16 | F 1.75 | G 3.79 | H 2.21 | I 2.58 | K 4.02 | L 3.65 | M 2.4 | N 3.94 | P 3.66 | Q 3.11 | S 3.56 | T 3.56 | V 3.4 | W 1.28 | Y 2.97
R24: A 4 | C 3.53 | D 4 | E 4.23 | F 3.2 | G 3.94 | H 3.83 | I 3.11 | K 3.74 | L 2.92 | M 2.96 | N 3.66 | P 3.53 | Q 3.52 | S 3.46 | T 3.95 | V 3.31 | W 3.05 | Y 2.38

Variants of: B2
Test: as above
Settings: c terminus: a fixed tail appended

Protein stability index of substitutions, site by site:
R1: A 4.57 | C 3.93 | D 4.74 | E 4.14 | F 2.21 | G 4.15 | H 4.12 | I 3.16 | K 4.05 | L 3.51 | M 3.66 | N 4.63 | P 4.44 | Q 4.45 | S 4.56 | T 4.2 | V 3.41 | W 2.81 | Y 2.79
V2: A 4.41 | C 4.02 | D 4.54 | E 4.78 | F 3.26 | G 3.52 | H 4.2 | I 4.18 | K 4.6 | L 4.19 | M 3.97 | N 4.5 | P 4.68 | Q 4.65 | R 4.45 | S 4.44 | T 4.35 | W 3.61 | Y 3.54
K3: A 4.38 | C 3.52 | D 4.48 | E 4.64 | F 3.29 | G 4.31 | H 3.83 | I 2.81 | L 2.72 | M 3.67 | N 4.32 | P 4.55 | Q 4.07 | R 3.92 | S 4.33 | T 4.19 | V 3.29 | W 2.56 | Y 2.86
L4: A 4.57 | C 4.48 | D 4.18 | E 5.13 | F 3.9 | G 4.44 | H 4.27 | I 4.19 | K 4.43 | M 4.13 | N 4.48 | P 4.82 | Q 5.02 | R 4.25 | S 4.61 | T 4.84 | V 3.86 | W 4.24 | Y 3.77
I5: A 4.11 | C 3.97 | D 4.7 | E 4.63 | F 4.02 | G 4.09 | H 4.3 | K 4.01 | L 4.4 | M 4.3 | N 4.41 | P 4.8 | Q 4.8 | R 3.86 | S 4.3 | T 4.25 | V 4 | W 3.6 | Y 3.75
S6: A 4 | C 3.76 | D 4.49 | E 3.85 | F 2.77 | G 4.38 | H 4.03 | I 3.23 | K 4.36 | L 2.97 | M 3.14 | N 4.26 | P 4.17 | Q 4.26 | R 3.62 | T 3.95 | V 3.52 | W 2.86 | Y 3.34
N7: A 4.02 | C 3.64 | D 4.26 | E 4.2 | F 2.92 | G 3.96 | H 3.79 | I 3.6 | K 4.31 | L 3.36 | M 3.36 | P 4.09 | Q 4.09 | R 3.47 | S 4.22 | T 4 | V 3.77 | W 3.1 | Y 3.32
K8: A 4.1 | C 3.04 | D 4.45 | E 4.42 | F 3.56 | G 4.62 | H 3.94 | I 3.78 | L 3.33 | M 3.15 | N 3.96 | P 3.64 | Q 4.7 | R 3.95 | S 4.21 | T 4.33 | V 3.88 | W 2.89 | Y 3.22
G9: A 4.12 | C 3.56 | D 4.36 | E 4.23 | F 3.19 | H 4.03 | I 3.25 | K 3.98 | L 3.64 | M 3.75 | N 4.17 | P 3.95 | Q 4.31 | R 3.54 | S 4.21 | T 4.27 | V 4.18 | W 2.8 | Y 3.44
T10: A 4.2 | C 3.8 | D 4.1 | E 4.26 | F 3.1 | G 4.01 | H 4.52 | I 3.74 | K 3.95 | L 3.38 | M 3.98 | N 4.2 | P 4.29 | Q 4.51 | R 3.91 | S 3.88 | V 3.38 | W 2.66 | Y 3.94
E11: A 4.04 | C 3.69 | D 4.05 | F 2.71 | G 3.57 | H 3.41 | I 3.24 | K 3.7 | L 3.41 | M 3.13 | N 4.04 | P 3.95 | Q 3.57 | R 3.45 | S 3.55 | T 3.82 | V 3.16 | W 2.43 | Y 3
T12: A 4.11 | C 3.87 | D 4.31 | E 4.53 | F 3.67 | G 4.14 | H 4.24 | I 3.86 | K 4.49 | L 3.61 | M 3.44 | N 4.26 | P 4.29 | Q 4.18 | R 3.95 | S 4.09 | V 4.01 | W 3.11 | Y 3.25
D13: A 3.72 | C 3.21 | E 4.21 | F 2.96 | G 3.89 | H 3.51 | I 3.24 | K 3.74 | L 3.4 | M 3.48 | N 3.68 | P 3.26 | Q 3.9 | R 3.76 | S 3.85 | T 3.76 | V 3.5 | W 2.48 | Y 2.74
N14: A 4.25 | C 3.72 | D 4.04 | E 4.53 | F 3.06 | G 3.83 | H 3.82 | I 3.06 | K 3.65 | L 3.48 | M 3.6 | P 4.3 | Q 4.29 | R 3.71 | S 4.56 | T 4.16 | V 4.26 | W 2.65 | Y 3.73
D15: A 3.8 | C 3.09 | E 3.94 | F 2.87 | G 3.67 | H 3.64 | I 3.29
